{
  "source": "patent US20140378530A1",
  "target": "glutathione-S-transferase (GST)-tagged recombinant RARa ligand binding domain (LBD) (UniProt P10276)",
  "sequence (P10276 183-417 limits assumed)": "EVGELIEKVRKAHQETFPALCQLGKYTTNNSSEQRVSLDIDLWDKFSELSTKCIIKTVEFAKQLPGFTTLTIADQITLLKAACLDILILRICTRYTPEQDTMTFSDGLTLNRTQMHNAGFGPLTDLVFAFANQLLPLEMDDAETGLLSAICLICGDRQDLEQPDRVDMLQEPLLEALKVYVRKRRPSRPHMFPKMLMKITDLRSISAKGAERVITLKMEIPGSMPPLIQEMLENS",
  "experiment": "cell-free TR-FRET coactivator recruitment assay; the concentration varied is that of the retinoid Rald, not of either protein",
  "data": [
    {"substance": "fluorescein-labeled coactivator peptide (PGC-1a)", "values": [
      {"measurement": "EC50 of retinaldehyde (Rald, small-molecule ligand) for recruitment of PGC-1a to RARa", "value": 0.082, "unit": "µM"}
    ]}
  ]
}
